Measurements taken from paper PMC5887438 (Nucleic Acids Research, 2018).

Biological target: C. crescentus σ70 domain 2 (σ70_2, residues 128-487) (Caulobacter crescentus, UniProt P52324 127-486)
Assay: crystal structure

Chain of C. crescentus σ70 domain 2 (σ70_2, residues 128-487) (P52324 127-486): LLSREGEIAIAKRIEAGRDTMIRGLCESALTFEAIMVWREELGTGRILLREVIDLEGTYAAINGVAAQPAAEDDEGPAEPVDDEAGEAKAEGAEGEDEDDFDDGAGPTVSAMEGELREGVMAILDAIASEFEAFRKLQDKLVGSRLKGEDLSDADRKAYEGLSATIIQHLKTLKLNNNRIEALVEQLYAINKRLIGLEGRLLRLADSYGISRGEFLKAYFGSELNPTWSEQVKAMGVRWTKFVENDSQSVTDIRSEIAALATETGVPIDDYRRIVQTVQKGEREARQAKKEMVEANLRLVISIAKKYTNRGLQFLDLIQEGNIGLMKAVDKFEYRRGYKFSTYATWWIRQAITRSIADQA

stoichiometry N: 1
B1: C. crescentus GcrA-SID (residues 88-173) (domain or fragment, Caulobacter crescentus, UniProt A0A0H3C9J4 88-173, looked up)
chain: VPVAAAPAPLPAFRHEEPGSATVLTLGAHMCKWPIGDPSSEGFTFCGRRSSEGPYCVEHARVAYQPQQTKKKSGGAELARSLRRYI
